Substitutions are numbered along the chain they refer to. In names and notes the source's numbering stands.

The target in series [1] is T1, threonine deaminase (Ilv1), wild-type (Saccharomyces cerevisiae, UniProt P00927).
T1 sequence (P00927 46-576): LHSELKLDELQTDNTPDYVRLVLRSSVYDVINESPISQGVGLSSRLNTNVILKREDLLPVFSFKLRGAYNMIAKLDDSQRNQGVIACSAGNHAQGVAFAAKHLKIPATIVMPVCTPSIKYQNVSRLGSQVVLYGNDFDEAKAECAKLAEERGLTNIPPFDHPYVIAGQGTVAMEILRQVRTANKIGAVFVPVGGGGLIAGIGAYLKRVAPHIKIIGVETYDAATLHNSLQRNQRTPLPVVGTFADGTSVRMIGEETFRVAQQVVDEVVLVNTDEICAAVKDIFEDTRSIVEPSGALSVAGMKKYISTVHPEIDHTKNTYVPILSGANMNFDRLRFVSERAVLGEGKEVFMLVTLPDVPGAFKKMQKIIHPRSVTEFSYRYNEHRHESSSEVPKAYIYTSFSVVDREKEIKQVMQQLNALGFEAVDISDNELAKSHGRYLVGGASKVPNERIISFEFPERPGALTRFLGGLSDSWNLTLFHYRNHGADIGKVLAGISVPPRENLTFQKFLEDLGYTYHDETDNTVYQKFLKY
Kind of series: GDH-coupled NADH oxidation assay of TD activity with purified recombinant Ilv1. It counts as biochemical.

For series [2], the target named is T1, threonine deaminase (Ilv1), wild-type. Kind of series: biochemical. Conditions: read-out: GDH-coupled TD activity assay with purified Ilv1; 1.8-fold activation at 5 mM Va.
Substrate in series [3]: C[C@@H](O)[C@H](N)C(=O)O
The series is described as follows: purified protein. It counts as biochemical, Saccharomyces cerevisiae. Conditions: pyridoxal-5'-phosphate.

For orientation: IC50 means the concentration at which inhibition is half-maximal. For `CC[C@H](C)[C@H](N)C(=O)O` [isoleucine], the IC50 in series [1] is 270 ± 9 µM.
In the case of `CC(C)[C@H](N)C(=O)O` [valine], the fold induction at 5000 µM in series [2] is 1.8.

B1: threonine deaminase (Ilv1), wild-type (Saccharomyces cerevisiae S288C) (protein)
chain: T1 sequence (P00927 46-576)
notes: recombinant Ilv1 lacking the N-terminal 45 amino acid residues (mitochondrial localization signal), expressed in E. coli BL21(DE3)
What is called kcat is the maximal rate divided by the concentration of active sites. What is called kcat/Km is the second-order rate constant that governs catalysis at low substrate concentration. On to B1, for which, in series [3], the K0.5 worked out at 40 ± 2.2 mM, the kcat turned out to be 75 ± 4.1 s⁻¹ and the kcat/Km is 1870 M⁻¹ s⁻¹.

B2: threonine deaminase (Ilv1), H480Y variant (Saccharomyces cerevisiae S288C; H480Y) (protein)
chain: T1 sequence (P00927 46-576) with H435Y
notes: as for B1
On to B2, for which, in series [3], the K0.5 was 42 ± 2.4 mM, the kcat came out at 75 ± 3.6 s⁻¹ and the kcat/Km was found to be 1780 M⁻¹ s⁻¹.

For the origin of these results see paper PMC8904041, “High-Level Production of Isoleucine and Fusel Alcohol by Expression of the Feedback Inhibition-Insensitive Threonine Deaminase in Saccharomyces cerevisiae” (Applied and Environmental Microbiology, 2022).
